# Experimental data: US20030229207A1 (published 2003)
# B1: chimeric H65 IgG (antibody, V domains shown)
# VH: QIQLVQSGPELKKPGETVKISCKASGYTFTNYGMNWVKQAPGKGLRWMGWINTHTGEPTYADDFKGRFAFSLETSASTAYLQINNLKNEDTATYFCTRRGYDWYFDVWGAGTTVTVSS
# VL: DIKMTQSPSSMYASLGERVTITCKASQDINSYLSWFQQKPGKSPKTLIYRANRLVDGVPSRFSGSGSGQDYSLTISSLDYEDMGIYYCQQYDESPWTFGGGTKLEIK
# notes: Light and heavy chain each consist of unmodified mouse V/J-segments fused to a human C-segment (human kappa / human gamma by the ELISA used); also called purified cH65 IgG
# B2: chimeric H65 Fab (Fab, V domains shown)
# VH: QIQLVQSGPELKKPGETVKISCKASGYTFTNYGMNWVKQAPGKGLRWMGWINTHTGEPTYADDFKGRFAFSLETSASTAYLQINNLKNEDTATYFCTRRGYDWYFDVWGAGTTVTVSS
# VL: DIKMTQSPSSMYASLGERVTITCKASQDINSYLSWFQQKPGKSPKTLIYRANRLVDGVPSRFSGSGSGQDYSLTISSLDYEDMGIYYCQQYDESPWTFGGGTKLEIK
# notes: Fab of the chimeric H65 antibody; also called Chimeric Fab
# B3: low-risk he1 Fab (Fab, V domains shown)
# VH: QIQLVQSGPGLKKPGGSVRISCAASGYTFTNYGMNWVKQAPGKGLRWMGWINTHTGEPTYADDFKGRFTFSLDTSKSTAYLQINSLRAEDTATYFCTRRGYDWYFDVWGQGTTVTVSS
# VL: DIQMTQSPSSMSASLGDRVTITCRASQDINSYLSWFQQKPGKSPKTLIYRANRLVDGVPSRFSGSGSGTDYTLTISSLQYEDFGIYYCQQYDESPWTFGGGTKLEIK
# notes: also called hel Fab; Low-Risk Fab
# B4: he3 Fab (Fab, V domains shown)
# VH: EIQLVQSGGGLVKPGGSVRISCAASGYTFTNYGMNWVRQAPGKGLEWMGWINTHTGEPTYADSFKGRFTFSLDDSKNTAYLQINSLRAEDTAVYFCTRRGYDWYFDVWGQGTTVTVSS
# VL: DIQMTQSPSSLSASVGDRVTITCRASQDINSYLSWFQQKPGKAPKTLIYRANRLESGVPSRFSGSGSGTDYTLTISSLQYEDFGIYYCQQYDESPWTFGGGTKLEIK
# notes: Fab (he3 kappa and Fd) expressed in E. coli E104 from pING4628; also called Moderate-Risk Fab
# B5: low risk humanized H65 (he1) IgG (antibody, V domains shown)
# VH: QIQLVQSGPGLKKPGGSVRISCAASGYTFTNYGMNWVKQAPGKGLRWMGWINTHTGEPTYADDFKGRFTFSLDTSKSTAYLQINSLRAEDTATYFCTRRGYDWYFDVWGQGTTVTVSS
# VL: DIQMTQSPSSMSASLGDRVTITCRASQDINSYLSWFQQKPGKSPKTLIYRANRLVDGVPSRFSGSGSGTDYTLTISSLQYEDFGIYYCQQYDESPWTFGGGTKLEIK
# notes: Whole IgG with human constant regions (detected with anti-human kappa and anti-human gamma), expressed transiently in CHO-K1; also called he1 H65 antibody; hH65
# Experiments:
# [1] = molecular target: rat CD5 antigen present on rat T cells (rat) (UniProt P51882); test: flow cytometry, rat spleen cells 3 h after 0.5 mg/kg i.v.
# rat CD5 antigen present on rat T cells (rat), sequence (P51882 24-491): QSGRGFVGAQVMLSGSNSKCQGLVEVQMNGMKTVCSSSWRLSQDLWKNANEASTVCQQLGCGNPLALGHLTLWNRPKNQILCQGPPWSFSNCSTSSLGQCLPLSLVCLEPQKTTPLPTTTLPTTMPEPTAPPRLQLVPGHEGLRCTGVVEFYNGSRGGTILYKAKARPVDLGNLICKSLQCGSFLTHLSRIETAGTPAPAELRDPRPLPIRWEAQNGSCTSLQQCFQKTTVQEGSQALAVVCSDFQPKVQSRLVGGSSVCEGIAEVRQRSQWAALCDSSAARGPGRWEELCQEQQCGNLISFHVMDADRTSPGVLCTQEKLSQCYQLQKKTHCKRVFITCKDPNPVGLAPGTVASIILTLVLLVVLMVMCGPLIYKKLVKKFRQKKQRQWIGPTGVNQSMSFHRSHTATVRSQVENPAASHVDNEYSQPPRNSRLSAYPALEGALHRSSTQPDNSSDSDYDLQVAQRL
# [2] = molecular target: rat CD5 antigen present on rat T cells (rat) (UniProt P51882); test: flow cytometry, rat blood cells 3 h after 0.5 mg/kg i.v.
# [3] = molecular target: rat CD5 antigen present on rat T cells (rat) (UniProt P51882); test: flow cytometry, rat lymph node cells 3 h after 0.5 mg/kg i.v.
# [4] = molecular target: T1, human CD5 cell differentiation marker (human, UniProt P06127 25-495); test: FACS-based competitive assay, experiment 3; reference mouse H65 = 100%
# T1 construct: whole, on cells; Cell-surface CD5; also called CD5 antigen; gp67
# T1 sequence (looked up): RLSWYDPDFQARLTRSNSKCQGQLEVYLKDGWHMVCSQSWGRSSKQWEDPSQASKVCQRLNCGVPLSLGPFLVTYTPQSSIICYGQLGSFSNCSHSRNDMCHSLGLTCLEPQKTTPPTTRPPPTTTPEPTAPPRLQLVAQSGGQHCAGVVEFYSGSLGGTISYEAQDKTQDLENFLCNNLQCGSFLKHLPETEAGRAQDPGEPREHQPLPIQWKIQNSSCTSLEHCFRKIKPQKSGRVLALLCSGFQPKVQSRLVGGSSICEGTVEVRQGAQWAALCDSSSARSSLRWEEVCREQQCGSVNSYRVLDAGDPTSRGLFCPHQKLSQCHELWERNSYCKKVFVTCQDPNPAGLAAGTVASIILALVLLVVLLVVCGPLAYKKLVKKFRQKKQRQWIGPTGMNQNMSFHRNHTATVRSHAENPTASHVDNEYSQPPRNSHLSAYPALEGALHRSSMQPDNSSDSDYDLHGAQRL
# [5] = molecular target: T1, human CD5 cell differentiation marker; test: FACS-based competitive assay, experiment 2; reference mouse H65 = 100%
# [6] = molecular target: T1, human CD5 cell differentiation marker; test: FACS-based competitive assay, mean of 3 experiments ± SD; reference mouse H65 = 100%
# [7] = molecular target: T1, human CD5 cell differentiation marker; test: FACS-based competitive assay, experiment 1; reference mouse H65 = 100%
# [8] = molecular target: T1, human CD5 cell differentiation marker; test: competition with 0.1 nM ^125I-cH65 IgG on Molt-4M cells, fitted with MacLigand
# Method: Competitive binding was performed as follows: 100 μl of Molt-4M cells were washed two times in ice-cold DHB binding buffer (Dubellco's modified Eagle's medium (Gibco, 320-1965PJ), 1.0% BSA and 10 mM Hepes at pH 7.2.-7.4). Cells were resuspended in the same buffer, plated into 96 v-bottomed wells (Costar) at 3×10⁵ cells per well and pelleted at 4° C. by centrifugation for 5 min at 1,000 rpm using a Beckman JS 4.2 rotor; 50 μl of 2×-concentrated 0.1 nM ¹²⁵I-cH65 IgG in DHB was then added to each well and competed with 50 μl of 2×-concentrated cH65 IgG or humanized antibody in DHB at final antibody concentrations from 100 nM to 0.0017 nM. Humanized antibody was obtained from culture supernatants of Sp2/0 clone C1718 which expresses he3 IgG. The concentration of the antibody in the supernatants was established by ELISA using a chimeric antibody as a standard. The concentration of the antibody in the purified preparation was determined by […] to proceed at 4° C. for 5 hrs and was terminated by washing cells three times with 200 Al of DHB binding buffer by centrifugation for 5 min at 1,000 rpm. All buffers and operations were at 4° C. Radioactivity was determined by solubilizing cells in 100 μl of 1.0 M NaOH and counting in a Cobra II auto gamma counter (Packard). Data from binding experiments were analyzed by the weighted nonlinear least squares curve fitting program, MacLigand, a Macintosh version of the computer program “Ligand” from Munson, Analyt. Biochem., 107:220 (1980). Objective statistical criteria (F, test, extra sum squares principle) were used to evaluate goodness of fit and for discriminating between models. Nonspecific binding was treated as a parameter subject to error and was fitted simultaneously with other parameters.
molecule,measurement,setting,value
OX19 MoAb (antibody),% of CD4 cells positive for surface-bound mouse IgG1 (CD4/mIgG1),[1],84.8%
same,% of CD8 cells positive for surface-bound mouse IgG1 (CD8/mIgG1),[1],73.6%
same,% of CD4 cells positive for surface-bound mouse IgG1 (CD4/mIgG1),[2],96.2%
same,% of CD8 cells positive for surface-bound mouse IgG1 (CD8/mIgG1),[2],70.2%
same,% of CD4 cells positive for surface-bound mouse IgG1 (CD4/mIgG1),[3],96.2%
same,% of CD8 cells positive for surface-bound mouse IgG1 (CD8/mIgG1),[3],96.8%
B1,cH65 Affinity Relative to H65 (100%),[4],96.3%
same,cH65 Affinity Relative to H65 (100%),[5],106%
same,cH65 Affinity Relative to H65 (100%),[6],105%
same,cH65 Affinity Relative to H65 (100%),[7],113%
same,Kd,[8],2.3 nM
B2,Kd,[8],18.4 nM
B3,Kd,[8],14.3 nM
B4,Kd,[8],2.2 nM
B5,Kd,[8],2.1 nM
